Literature values, collected in article PMC8757841.

Target: Transferrin receptor (Rattus norvegicus) (UniProt Q99376)
Chain of UniProt Q99376 (Q99376 whole entry): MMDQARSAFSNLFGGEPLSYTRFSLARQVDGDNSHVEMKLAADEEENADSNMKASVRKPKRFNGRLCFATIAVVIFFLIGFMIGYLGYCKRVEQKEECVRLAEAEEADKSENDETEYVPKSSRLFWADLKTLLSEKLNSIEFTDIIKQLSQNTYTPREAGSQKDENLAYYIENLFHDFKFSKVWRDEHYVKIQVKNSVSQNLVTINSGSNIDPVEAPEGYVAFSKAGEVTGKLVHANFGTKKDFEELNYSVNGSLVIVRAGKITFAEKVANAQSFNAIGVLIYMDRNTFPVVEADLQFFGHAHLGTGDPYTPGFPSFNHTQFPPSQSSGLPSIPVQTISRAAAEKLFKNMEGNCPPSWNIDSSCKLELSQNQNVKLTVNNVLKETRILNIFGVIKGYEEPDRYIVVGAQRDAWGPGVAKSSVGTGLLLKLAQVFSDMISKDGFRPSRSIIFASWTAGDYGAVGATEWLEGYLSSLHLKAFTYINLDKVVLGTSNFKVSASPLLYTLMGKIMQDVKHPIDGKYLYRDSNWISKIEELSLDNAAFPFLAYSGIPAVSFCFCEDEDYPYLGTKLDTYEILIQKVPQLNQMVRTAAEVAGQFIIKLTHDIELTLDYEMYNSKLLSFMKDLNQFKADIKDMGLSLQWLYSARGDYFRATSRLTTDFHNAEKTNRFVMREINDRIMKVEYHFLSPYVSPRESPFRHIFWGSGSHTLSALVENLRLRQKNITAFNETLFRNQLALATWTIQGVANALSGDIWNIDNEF

Chain of Transferrin (P12346 20-698): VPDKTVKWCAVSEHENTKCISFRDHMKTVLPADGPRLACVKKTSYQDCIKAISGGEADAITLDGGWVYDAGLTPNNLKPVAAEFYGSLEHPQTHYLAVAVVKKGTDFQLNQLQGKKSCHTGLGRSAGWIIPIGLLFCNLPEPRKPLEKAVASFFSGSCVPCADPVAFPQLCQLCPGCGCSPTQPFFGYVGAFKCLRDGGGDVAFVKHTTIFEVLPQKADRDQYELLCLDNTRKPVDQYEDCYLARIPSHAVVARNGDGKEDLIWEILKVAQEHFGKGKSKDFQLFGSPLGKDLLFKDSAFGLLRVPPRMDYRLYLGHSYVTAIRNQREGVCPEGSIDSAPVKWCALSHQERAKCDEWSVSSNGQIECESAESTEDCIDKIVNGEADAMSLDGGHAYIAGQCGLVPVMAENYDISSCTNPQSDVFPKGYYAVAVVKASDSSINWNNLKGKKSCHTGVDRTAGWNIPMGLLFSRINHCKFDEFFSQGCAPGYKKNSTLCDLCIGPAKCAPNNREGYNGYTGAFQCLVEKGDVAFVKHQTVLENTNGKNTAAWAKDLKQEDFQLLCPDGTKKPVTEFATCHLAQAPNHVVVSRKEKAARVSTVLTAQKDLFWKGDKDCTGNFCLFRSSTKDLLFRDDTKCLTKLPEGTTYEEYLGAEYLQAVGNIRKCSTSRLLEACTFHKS

Kd: 5 nM
Substance: Transferrin (from UniProt P12346)
